Test [1] concerns BMDM (murine C3aR). The format is cell-based, mouse. As to conditions: wild-type C57BL/6J BMDMs, 90,000/well; 10 min stimulation at RT; AlphaLISA p-ERK1/2; n = 3 mice; C3a is recombinant mouse C3a; read-out: EC50 (pERK1/2), BMDM. As to the method: Mouse bone marrow-derived macrophages (BMDMs) were obtained and cultured as previously described ([20], [21]). All experiments using mice were approved by the University of Queensland animal ethics committee. Wild-type and C3aR^-/- mice on a C57BL/6J genetic background (n = 3) were sacrificed by cervical dislocation. The tibia was removed and sterilised. Upon removal of both epiphyses, bone marrow cells were harvested by flushing the central cavity with complete RPMI-1640 medium using a 10 ml syringe attached to a 25-gauge needle. Cells were then cultured in complete RPMI-1640 medium (containing 10 % FBS, 100 IU/ml penicillin, 100 μg/ml streptomycin) supplemented with 100 ng/ml recombinant human macrophage colony stimulating factor on 10 mm square dishes. Mature adherent macrophages for assays were harvested on day 6-7 by gentle scraping.
(§1) Ligand-induced ERK1/2 phosphorylation was assessed using the AlphaLISA Surefire Ultra p-ERK1/2 (Thr202/Tyr204) kit (PerkinElmer, Melbourne, Australia) following the manufacturer’s protocol as previously described ([18], [20], [22]). Briefly, CHO-K1, CHO-C3aR, CHO-C5aR1, HMDMs (50,000/well) or BMDMs (90,000/well) were seeded in tissue culture-treated 96-well plates (Corning, Corning, USA) for 24 h and serum-starved overnight. All ligand dilutions were prepared in serum-free medium (SFM) containing 0.1% BSA. For inhibition assays, cells were pre-treated with the following ligands (5 µM SB290157, or respective concentrations of hC3a, mC3a, hC5a, hTLQP-21, and mTLQP-21) or the solvent-only control for 30 min before agonist (hC3a, hTLQP-21 and mTLQP-21) addition. The concentration and identity of the ligands are described in detail in the figure legends. For stimulation, cells were treated with ligands at the indicated concentrations for 10 min at RT and then immediately lysed using AlphaLISA lysis buffer on a microplate shaker (450 rpm, 10 min). For the detection of phospho-ERK1/2 content, cell lysate (5 μL/well) was transferred to a 384-well ProxiPlate (PerkinElmer, Melbourne, Australia) and added to the donor and acceptor reaction mix (2.5 μL/well, respectively), followed by a 2-h incubation at RT in the dark. On a Tecan Spark 20M (Tecan, Männedorf, Switzerland), the plate was measured using standard AlphaLISA settings.
(§2) All experiments were conducted in triplicates and repeated on three separate occasions unless otherwise specified. Data was analysed using GraphPad software (Prism 9.1). Data from each individual repeat was normalised accordingly (as specified in the figure legends) before being combined and expressed as mean ± standard error of the mean (S.E.M.) unless otherwise described. For all dose-response studies, logarithmic concentration-response curves were plotted using combined data and analysed to determine the respective potency values. Statistical analysis was performed using two-way ANOVA with Dunnett’s post hoc analysis. Donor-matched comparisons were made for HMDM experiments. Differences were deemed significant when p < 0.05.
Figure 4 TLQP-21 triggers ERK signalling through C3aR in murine bone marrow-derive macrophages. BMDMs (90,000/well) from wildtype mice (A) or with C3aR knockout mice (B), were serum-starved overnight and then stimulated with respective ligands at the indicated concentrations for 10 min. The phospho-ERK1/2 content in the cell lysate was measured and normalised to the medium only-treated levels before being combined. Data represent mean ± S.E.M. of triplicate measurements using cells from 3 mice (n = 3).

In test [2] the target is T1, human C3aR (Homo sapiens, UniProt Q16581).
T1 sequence (Q16581 1-482): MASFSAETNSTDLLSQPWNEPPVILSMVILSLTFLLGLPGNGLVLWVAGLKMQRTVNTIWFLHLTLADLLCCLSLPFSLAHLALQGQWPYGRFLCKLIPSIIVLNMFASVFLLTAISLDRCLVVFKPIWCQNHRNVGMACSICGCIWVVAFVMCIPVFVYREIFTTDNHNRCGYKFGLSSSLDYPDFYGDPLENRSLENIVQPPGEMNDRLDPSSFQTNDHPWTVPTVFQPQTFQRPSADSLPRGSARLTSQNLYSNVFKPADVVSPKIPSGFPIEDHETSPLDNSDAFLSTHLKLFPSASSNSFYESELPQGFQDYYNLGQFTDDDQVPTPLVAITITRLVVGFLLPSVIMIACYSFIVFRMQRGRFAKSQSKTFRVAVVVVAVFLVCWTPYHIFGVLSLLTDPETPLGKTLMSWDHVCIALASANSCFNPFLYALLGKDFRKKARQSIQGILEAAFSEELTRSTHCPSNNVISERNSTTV
Put plainly: phospho-ERK1/2 assay in CHO-C3aR cells. The format is cell-based. To be noted: efficacy relative to hC3a; fold baseline normalised; n = 3-4. As to the method:
Cell lines for this study were cultured as previously described ([20]). Non-transfected CHO-K1 cells or CHO cells stably expressing the human C3aR (CHO-C3aR; Product # ES-730-C, PerkinElmer, Melbourne, Australia) were maintained in Ham’s F12 medium containing 10% foetal bovine serum (FBS), 100 IU/ml penicillin and 100 μg/ml streptomycin, with additional 400 μg/ml G418 (In vivoGen, San Diego, USA) added for CHO-C3aR cell culture. HEK293 cells were maintained in DMEM medium containing 10% FBS, 100 IU/ml penicillin and 100 μg/ml streptomycin. All cell lines were maintained in T175 flasks (37°C, 5% CO2) and subcultured at 80-90% confluency using 0.05% trypsin-EDTA in DPBS.
as §1, §2
Figure 1 hTLQP-2 and mTLQP-21 activate ERK signalling in CHO-K1 and CHO-C3aR cells. hTLQP-21, mTLQP-21 and plasma-derived human C3a were tested in (A) non-transfected CHO-K1 or (B) CHO cells stably expressing human C3aR. CHO cells were serum-starved overnight and then stimulated with various ligands for 10 min before being lysed. The phospho-ERK1/2 content in the lysate was measured and expressed as fold-baseline before being combined. The maximum relative pERK1/2 activity induced by each ligand is shown in (C). Data represent mean ± S.E.M. of triplicate measurements from 3-4 independent experiments (n = 3-4). Two-way ANOVA with Dunnett’s post hoc analysis. *P < 0.05, ***P < 0.001, ****P < 0.0001. Ligand treated versus medium treated cells for each cell line.

For test [3], the system named is HMDM (endogenous human C3aR). The class given is cell-based. As to conditions: 10 min stimulation at RT, n = 4 donors.
Description: HMDMs were generated and cultured as previously described ([20]), with experiments approved by The University of Queensland Human Research Ethics Committee. Briefly, human buffy coat blood from anonymous healthy donors was obtained through the Australian Red Cross Blood Service (Brisbane, Australia). Human CD14+ monocytes were isolated from blood using Lymphoprep density centrifugation (STEMCELL, Melbourne, Australia) followed by CD14+ MACS magnetic bead separation (Miltenyi Biotec, Sydney, Australia). The isolated monocytes were differentiated for 7 days in Iscove’s Modified Dulbecco’s Medium supplemented with 10% FBS, 100 IU/ml penicillin, 100 μg/ml streptomycin and 15 ng/ml recombinant human macrophage colony stimulating factor (BioLegend, San Diego, USA) on 10 mm square dishes (Bio-strategy, Brisbane, Australia). Non-adherent cells were removed by washing with DPBS, and the adherent differentiated HMDMs were harvested by gentle scraping.
as §1, §2
Figure 3 Agonistic and antagonistic activities of hTLQP-21 and mTLQP-21 in human monocyte-derived macrophages. Serum-starved HMDMs (50,000/well) were (A) stimulated with medium or respective ligands at the indicated concentrations for 10 min and then lysed, or (B) pre-treated with 5 µM SB290157 for 30 min prior to stimulation. (C) HMDMs were pre-treated with 10 μM hTLQP-21 or mTLQP-21 for 30 min before being stimulated with respective concentrations of human C3a. (D) HMDMs were pre-treated with 10 nM hC3a, 10 μM hTLQP-21 or mTLQP-21 for 30 min before being stimulated with the same concentrations of the above ligands for 10 min and then lysed. (E) HMDMs were pre-treated with 10 μM hTLQP-21 or mTLQP-21 for 30 min before being stimulated with respective concentrations of human C5a for 10 min and then lysed. […]

Test [4] concerns the target T2, Murine complement C3a receptor, endogenous on mouse bone marrow-derived macrophages (mouse (endogenous in BMDMs)) (UniProt O09047).
T2 sequence: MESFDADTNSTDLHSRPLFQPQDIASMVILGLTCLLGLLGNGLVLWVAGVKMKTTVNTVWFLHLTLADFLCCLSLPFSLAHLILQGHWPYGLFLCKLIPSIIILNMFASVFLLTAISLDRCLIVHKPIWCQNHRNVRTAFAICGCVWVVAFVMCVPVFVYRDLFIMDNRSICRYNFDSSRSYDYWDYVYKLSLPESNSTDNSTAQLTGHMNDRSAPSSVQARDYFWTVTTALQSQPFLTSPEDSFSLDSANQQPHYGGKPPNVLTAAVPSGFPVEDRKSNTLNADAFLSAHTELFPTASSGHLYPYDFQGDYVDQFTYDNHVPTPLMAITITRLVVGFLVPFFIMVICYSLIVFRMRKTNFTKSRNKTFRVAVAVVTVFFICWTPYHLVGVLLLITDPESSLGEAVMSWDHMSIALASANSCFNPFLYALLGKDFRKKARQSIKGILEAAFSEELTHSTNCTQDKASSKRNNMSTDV

Test [5] concerns the target T3, Human complement C3a receptor, stably expressed on CHO cells (human) (UniProt Q16581).
T3 sequence: T1 sequence (Q16581 1-482)

Test [6] concerns the target T4, Human complement C3a receptor, endogenous on human monocyte-derived macrophages (human (endogenous in HMDMs)) (UniProt Q16581).
T4 sequence: T1 sequence (Q16581 1-482)

For test [7], the target named is T4, Human complement C3a receptor, endogenous on human monocyte-derived macrophages (human (endogenous in HMDMs)). This is another data set of the same source.

Where two headings read alike, the source gives them in different places.

Recombinant mouse C3a, sequence (P01027 671-748): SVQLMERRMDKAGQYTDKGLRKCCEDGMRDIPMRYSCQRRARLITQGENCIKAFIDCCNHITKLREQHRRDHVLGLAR

Take “mC3a: Recombinant mouse C3a, purchased from R&D Systems”: the EC50 in test [1] was 8.4 nM.
As to `CC(C)C[C@H](NC(=O)[C@H](C)NC(=O)[C@H](CO)NC(=O)[C@@H]1CCCN1C(=O)[C@@H]1CCCN1C(=O)[C@H](CCC(N)=O)NC(=O)[C@H](CC(C)C)NC(=O)[C@@H](N)[C@@H](C)O)C(=O)N[C@@H](CCCNC(=N)N)C(=O)N[C@@H](CCCNC(=N)N)C(=O)N[C@@H](CCCNC(=N)N)C(=O)N[C@@H](Cc1c[nH]cn1)C(=O)N[C@@H](Cc1ccc(O)cc1)C(=O)N[C@@H](Cc1c[nH]cn1)C(=O)N[C@@H](Cc1c[nH]cn1)C(=O)N[C@@H](C)C(=O)N[C@@H](CC(C)C)C(=O)N1CCC[C@H]1C(=O)N1CCC[C@H]1C(=O)N[C@@H](CO)C(=O)N[C@@H](CCCNC(=N)N)C(=O)O` [hTLQP-21], the “% C3a activity ± SE, CHO-C3aR” value in test [2] turned out to be 87.0 ± 3.5%. The EC50 in test [1] was 401 nM; in test [3] (estimated, read-out: estimated EC50 (pERK1/2), HMDM) it was 14800 nM.
In test [4], “Recombinant mouse C3a (from UniProt P01027 671-748) (ligand)” registered an EC50 (nM) of ERK1/2 phosphorylation in BMDMs of 8.4 nM.
Take `CC(C)C[C@H](NC(=O)[C@@H](N)[C@@H](C)O)C(=O)N[C@@H](CCC(N)=O)C(=O)N1CCC[C@H]1C(=O)N1CCC[C@H]1C(=O)N[C@@H](C)C(=O)N[C@@H](CO)C(=O)N[C@@H](CO)C(=O)N[C@@H](CCCNC(=N)N)C(=O)N[C@@H](CCCNC(=N)N)C(=O)N[C@@H](CCCNC(=N)N)C(=O)N[C@@H](Cc1c[nH]cn1)C(=O)N[C@@H](Cc1ccccc1)C(=O)N[C@@H](Cc1c[nH]cn1)C(=O)N[C@@H](Cc1c[nH]cn1)C(=O)N[C@@H](C)C(=O)N[C@@H](CC(C)C)C(=O)N1CCC[C@H]1C(=O)N1CCC[C@H]1C(=O)N[C@@H](C)C(=O)N[C@@H](CCCNC(=N)N)C(=O)O` [mTLQP-21]: the “% C3a activity ± SE, CHO-C3aR” value in test [2] amounted to 91.8 ± 2.7%. Besides, the EC50 in test [1] came out at 96.5 nM; in test [3] (primary human macrophages, 50,000/well, AlphaLISA p-ERK1/2, read-out: EC50 (pERK1/2), HMDM), 2850 nM.
In test [5], TLQPPASSRRRHFHHALPPAR [Mouse TLQP-21] gave an EC50 (nM) of ERK1/2 phosphorylation in CHO-C3aR cells of 83.6 nM. In test [6], this molecule gave an EC50 (nM) of ERK1/2 phosphorylation in HMDMs of 2850 nM. Moreover, the EC50 (nM) of ERK1/2 phosphorylation in BMDMs in test [4] was 96.5 nM. Moreover, in test [7], the ERK signalling in HMDMs by 10 μM mTLQP-21 under the control conditions of Figure 3B, % of the C3a induced activity (% of the C3a induced activity) was 40 and the mTLQP-21 induced ERK activation in HMDMs pre-treated with the C3aR antagonist SB290157 (5 μM, 30 min), % of the control level (% of the control level) was determined as 16.
The molecule TLQPPSALRRRHYHHALPPSR [Human TLQP-21] yielded an EC50 (nM) of ERK1/2 phosphorylation in CHO-C3aR cells in test [5] of 587 nM. This molecule showed an EC50 (nM) of ERK1/2 phosphorylation in HMDMs in test [6] of 14800 nM. This molecule also displayed an EC50 (nM) of ERK1/2 phosphorylation in BMDMs in test [4] of 401 nM. The hTLQP-21 induced ERK activation in HMDMs pre-treated with the C3aR antagonist SB290157 (5 μM, 30 min), % of the control level (% of the control level) in test [7] came out at 29.

These data come from publication PMC9909341, “TLQP-21 is a low potency partial C3aR activator on human primary macrophages” (Frontiers in Immunology, 2023).
